US20230057987A1 (published 2023)
Several values for one entry are separate records, joined by “and”; a condition that tells them apart may be missing. Identical values can stand only once.

T1: similar peptide SP-05-0007, source protein not stated peptide on HLA-A*02:01 (human)
T1 peptide: KIFPALCTV

T2: similar peptide SP-05-0008, source protein not stated peptide on HLA-A*02:01 (human)
T2 peptide: KILDELEKV

T3: similar peptide SP-05-0005, source protein not stated peptide on HLA-A*02:01 (human)
T3 peptide: KIEEFLEAV

T4: similar peptide SP-05-0002, source protein not stated peptide on HLA-A*02:01 (human)
T4 peptide: KIFSGLLKV

T5: similar peptide SP-05-0001, source protein not stated peptide on HLA-A*02:01 (human)
T5 peptide: HIMEHLEGV

T6: CT45-IP alanine variant, position 5 peptide on HLA-A*02:01 (human)
T6 peptide: KIFEALEGV

T7: similar peptide SP-05-0009, source protein not stated peptide on HLA-A*02:01 (human)
T7 peptide: KIIDLLPKV

T8: similar peptide SP-05-0010, source protein not stated peptide on HLA-A*02:01 (human)
T8 peptide: RIFETVNSV

T9: similar peptide SP-05-0003, source protein not stated peptide on HLA-A*02:01 (human)
T9 peptide: KVTEMLVNV

T10: CT45-IP alanine variant, position 8 peptide on HLA-A*02:01 (human)
T10 peptide: KIFEMLEAV

T11: similar peptide SP-05-0004, source protein not stated peptide on HLA-A*02:01 (human)
T11 peptide: KIWEWLVGV

T12: similar peptide SP-05-0006, source protein not stated peptide on HLA-A*02:01 (human)
T12 peptide: KIAELLENV

T13: CT45-IP alanine variant, position 1 peptide on HLA-A*02:01 (human)
T13 peptide: AIFEMLEGV

T14: CT45 (CT45A1, A2, A3, A5 to A10); CT45-IP peptide on HLA-A*02:01 (human)
T14 peptide: KIFEMLEGV

T15: CT45-IP alanine variant, position 3 peptide on HLA-A*02:01 (human)
T15 peptide: KIAEMLEGV

T16: CT45-IP alanine variant, position 7 peptide on HLA-A*02:01 (human)
T16 peptide: KIFEMLAGV

T17: CT45-IP alanine variant, position 4 peptide on HLA-A*02:01 (human)
T17 peptide: KIFAMLEGV

B1: TCR-12 (TCR, V domains shown)
Valpha: QLLEQSPQFLSIQEGENLTVYCNSSSVFSSLQWYRQEPGEGPVLLVTVVTGGEVKKLKRLTFQFGDARKDSSLHITAAQPGDTGLYLCAGGLSDSYDKVIFGPGTSLSVIP
Vbeta: EVTQTPKHLVMGMTNKKSLKCEQHMGHRAMYWYKQKAKKPPELMFVYSYEKLSINESVPSRFSPECPNSSLLNLHLHALQPEDSALYLCASSQGVGQEYGYTFGSGTRLTVV
B2: TCR-7 (TCR, V domains shown)
Valpha: QTVTQSQPEMSVQEAETVTLSCTYDTSESDYYLFWYKQPPSRQMILVIRQEAYKQQNATENRFSVNFQKAAKSFSLKISDSQLGDAAMYFCTFRYGGATNKLIFGTGTLLAVQP
Vbeta: GVIQSPRHLIKEKRETATLKCYPIPRHDTVYWYQQGPGQDPQFLISFYEKMQSDKGSIPDRFSAQQFSDYHSELNMSSLELGDSALYFCASRGGWAETPDTQYFGPGTRLTVL
B3: TCR-11 (TCR, V domains shown)
Valpha: IQVEQSPPDLILQEGANSTLRCNFSDSVNNLQWFHQNPWGQLINLFYIPSGTKQNGRLSATTVATERYSLLYISSSQTTDSGVYFCAVNTGTASKLTFGTGTRLQVTL
Vbeta: GVTQTPKFQVLKTGQSMTLQCAQDMNHNSMYWYRQDPGMGLRLIYYSASEGTTDKGEVPNGYNVSRLNKREFSLRLESAAPSQTSVYFCASSPRGQGRSYEQYFGPGTRLTVT
B4: TCR-4 (TCR, V domains shown)
Valpha: QSVAQPEDQVNVAEGNPLTVKCTYSVSGNPYLFWYVQYPNRGLQFLLKYITGDNLVKGSYGFEAEFNKSQTSFHLKKPSALVSDSALYFCAAPRDDKIIFGKGTRLHILP
Vbeta: GVTQTPKFRVLKTGQSMTLLCAQDMNHEYMYWYRQDPGMGLRLIHYSVGEGTTAKGEVPDGYNVSRLKKQNFLLGLESAAPSQTSVYFCASSYLRTGGNEQFFGPGTRLTVL
B5: TCR-10 (TCR, V domains shown)
Valpha: QNIDQPTEMTATEGAIVQINCTYQTSGFNGLFWYQQHAGEAPTFLSYNVLDGLEEKGRFSSFLSRSKGYSYLLLKELQMKDSASYLCAVPAPYTGTASKLTFGTGTRLQVTL
Vbeta: GVTQTPKFQVLKTGQSMTLQCAQDMNHNSMYWYRQDPGMGLRLIYYSASEGTTDKGEVPNGYNVSRLNKREFSLRLESAAPSQTSVYFCASSEGYSTYNEQFFGPGTRLTVL
B6: TCR-6 (TCR, V domains shown)
Valpha: QKEVEQDPGPLSVPEGAIVSLNCTYSNSAFQYFMWYRQYSRKGPELLMYTYSSGNKEDGRFTAQVDKSSKYISLFIRDSQPSDSATYLCAMSGNSGARDYGNNRLAFGKGNQVVVIP
Vbeta: EVTQTPKHLVMGMTNKKSLKCEQHMGHRAMYWYKQKAKKPPELMFVYSYEKLSINESVPSRFSPECPNSSLLNLHLHALQPEDSALYLCASATWEEAGPYNEQFFGPGTRLTVL
B7: TCR-5 (TCR, V domains shown)
Valpha: QQLNQSPQSMFIQEGEDVSMNCTSSSIFNTWLWYKQDPGEGPVLLIALYKAGELTSNGRLTAQFGITRKDSFLNISASIPSDVGIYFCAGGYNYGQNFVFGPGTRLSVLP
Vbeta: GVTQTPKHLITATGQRVTLRCSPRSGDLSVYWYQQSLDQGLQFLIQYYNGEERAKGNILERFSAQQFPDLHSELNLSSLELGDSALYFCASSAGLAGGYEQYFGPGTRLTVT

What was measured:
[1] = target: CT45-IP antigenic peptide (…) in complex with HLA-A*02 presented on cells (peptide-loaded T2 cells; NCIH1703 and A375 tumor cells) (human); test: cell-based or functional assay
[2] = target: CT45-IP-HLA-A*02 dextramer (human); test: flow cytometry, dextramer staining of TCR-mRNA electroporated T cells, gated on CD3+
[3] = target: T1, similar peptide SP-05-0007, source …; test: killing
[4] = target: T2, similar peptide SP-05-0008, source …; test: killing
[5] = target: T3, similar peptide SP-05-0005, source …; test: killing
[6] = target: T4, similar peptide SP-05-0002, source …; test: killing
[7] = target: T5, similar peptide SP-05-0001, source …; test: killing
[8] = target: T6, CT45-IP alanine variant, position 5 …; test: killing
[9] = target: T7, similar peptide SP-05-0009, source …; test: killing
[10] = target: T8, similar peptide SP-05-0010, source …; test: killing
[11] = target: T9, similar peptide SP-05-0003, source …; test: killing
[12] = target: T10, CT45-IP alanine variant, position 8 …; test: killing
[13] = target: T11, similar peptide SP-05-0004, source …; test: killing
[14] = target: T12, similar peptide SP-05-0006, source …; test: killing
[15] = target: T13, CT45-IP alanine variant, position 1 …; test: killing
[16] = target: T14, CT45 (CT45A1, A2, A3, A5 to A10); …; test: CT45-IP-HLA-A*02 dextramer on T cells with TCR mRNA; TCR found by tetramer sorting; full-length, on cells
[17] = target: T14, CT45 (CT45A1, A2, A3, A5 to A10); …; test: luciferase release, 24 h, 1:1; CD8+ T cells with TCR mRNA, T2 cells with titrated peptide; full-length, on cells
[18] = target: T15, CT45-IP alanine variant, position 3 …; test: killing
[19] = target: T16, CT45-IP alanine variant, position 7 …; test: killing
[20] = target: T17, CT45-IP alanine variant, position 4 …; test: killing

surface expression, % positive events by CT45-IP-HLA-A2*02 dextramer staining [2]	dextramer-positive events [16]	EC50 of peptide [17]	Binder	EC50, half maximal killing capacity (functional avidity; CT45-IP peptide titration on T2 cells, luciferase release) [1]	binding result [3]	binding result [4]	binding result [5]	binding result [6]	binding result [7]	binding result [8]	binding result [9]	binding result [10]	binding result [11]	binding result [12]	binding result [13]	binding result [14]	binding result [15]	binding result [18]	binding result [19]	binding result [20]
20.1%	20.1%	47.5 nM	B1	47.5 nM	no recognition	no recognition	no recognition	no recognition	no recognition	recognises	no recognition	no recognition	no recognition	recognises	no recognition	no recognition	recognises			
53.3%	53.3%	0.48 nM	B2	0.48 nM	no recognition	no recognition	no recognition	no recognition	no recognition	recognises	no recognition	no recognition	no recognition	recognises	no recognition	no recognition		recognises		
0.53% and 6.6%	6.6%	59.5 nM	B3	59.5 nM	no recognition	no recognition	no recognition	no recognition	no recognition		no recognition	no recognition	no recognition		no recognition	no recognition			recognises	
39.1%	39.1%	1.31 nM	B4	1.31 nM	no recognition	no recognition	no recognition	no recognition	no recognition	recognises	no recognition	no recognition	no recognition		no recognition	no recognition	recognises			
52.8%	52.8%	8.75 nM	B5	8.75 nM	no recognition	no recognition	no recognition	no recognition	no recognition		no recognition	no recognition	no recognition	recognises	no recognition	no recognition	recognises	recognises		recognises
2.9%	2.9%	3.25 nM	B6	3.25 nM	no recognition	no recognition	no recognition	no recognition	no recognition	recognises	no recognition	no recognition	no recognition	recognises		no recognition			recognises	
55.5% and 61.1%	61.1%	1.32 nM	B7	1.32 nM	no recognition	no recognition	no recognition	no recognition	no recognition	recognises	no recognition	no recognition	no recognition		no recognition	no recognition	recognises			recognises
